Assay [1] relates to dorsal root ganglia and/or dissociated ciliary neurons. As to the kind of experiment: Biological activity of modified and truncated CNTF proteins (rapid bacterial extracts). The note with it: soluble protein extracted from induced bacteria hosting each plasmid; compared with full length parental protein. It is filed as cell-based, chick. Here is the method: Samples for gel electrophoresis were prepared by resuspending cell pellets from 0.5 ml culture OD590=2 in 0.16 ml lysis buffer (100 mM TrisHCl, 10% glycerol, 4% sodium dodecyl sulfate, 1 mM dithiothreitol, 0.5 mg/ml bromophenol blue, pH 6.8) and boiling for 5 minutes.
(§1) Biological activity of recombinant CNTF was assayed on explants of chick embryo dorsal root ganglia (DRG) and dissociated cultures of ciliary ganglion (CG) neurons as described in Lindsay and Rohrer (1985, Devel. Biol 112:30-48). Briefly, DRG were dissected from chick embryos of 10 days incubation (E10) and 5-6 ganglia were explanted in 1 ml of a collagen gel matrix in 35 mm tissue culture dishes. After the gel had set, 1 ml of tissue culture growth medium F14 (Imperial Labs., U.K.) supplemented with 5% heat-inactivated horse serum (GIBCO) was added before adding human CNTF (1-20 l) to a final concentration of 100 pg to 100 ng/ml. CG were dissected from E8 chick embryos and incubated for 30 min in 0.25% trypsin (Worthington) in calcium- and magnesium-free phosphate buffered saline. The ganglia were then washed three times in F14 medium containing 5% horse serum before being dissociated to a single cell suspension by trituration through the bore of a Pasteur pipette. Enrichment for CG neurons was achieved by plating the cell suspension for 3.5 hr in a 60 mm dish, during which non-neuronal cells (fibroblasts and Schwann cells) attached firmly to the plastic while phase-bright neurons remained in suspension. The purified neurons were plated on polyornithine-laminin-coated 35 mm culture dishes at 8,000-10,000 neurons/dish. In explant cultures CNTF activity was determined by assessing the extent of fiber outgrowth in treated cultures compared to controls. Fiber outgrowth was scored on a scale of 0 to 5+, by comparing cultures to photographs of a dose-response of explanted DRG and NGF. In dissociated CG neuron cultures, CNTF activity was determined by counting at 48 hr the percentage of process-bearing neurons in control and CNTF-treated cultures. In all cases results were derived from triplicate cultures.
Biological activity was assayed on dorsal root ganglia and/or dissociated ciliary neurons was determined as described in section 12.1.6. Soluble protein was extracted from induced bacteria hosting each plasmid by the “rapid” protein extraction method described in section 12.1.3.

Assay [2] deals with GABAergic neurons (hippocampal cultures). Kind of assay: Effect of other neurotrophic factors on GABAergic hippocampal neurons in culture. The class given is cell-based, rat. Here is the method: Hippocampi were dissected from E18-19 rat embryos of Sprague-Dawley rats, and collected in F10 medium. The tissues were minced, rinsed twice with F10 medium (Gibco) and trypsinized with 0.25% trypsin (Gibco) for 20 minutes at 37° C. Trypsin was inactivated by the addition of a serum-containing medium composed of minimal essential medium (MEM) supplemented with fetal calf serum (FCS, 10%), glutamine (2 mM), penicillin (25 U/ml) and streptomycin (25 ug/ml). Dissociated cells obtained by gentle trituration were collected and centrifuged at low speed (500 rpm) for 30 seconds. The centrifugation was repeated twice, and the cell pellets were then resuspended in serum-containing medium. The cells were then plated onto 6 mm wells or 35 mm dishes that were coated with polyornithine (10 ug/ml) and laminin (10 ug/ml). In most of the experiments, the cells were plated at a low density of approximately 71,000 cells/cm^2. Five to six hours following the plating of cells, medium was changed to a serum-free medium containing 1% N3 and penicillin-streptomycin (25 units/ml and 25 ug/ml, respectively), at which time CNTF was added. Medium was changed every three to four days, with re-addition of the factor. […]

The test system of assay [3] is chick embryonic spinal motorneurons. Kind of assay: Survival of chick embryonic spinal motorneurons in culture. It is filed as cell-based. On the set-up: key to Survival: −: not significantly different from control (survival: 8.3 ± 3.8%, mean ± SD, n = 18); ±: about 15-20% (statistically significant from each blank control, p < 0.01); + +: about 35-55%; + ++: about 55-75%. On the procedure: Motorneuron columns were dissected under a stereomicroscope from the lumbar part of the spinal cord of chick embryos on the 6th day of embryonic development and stored in cold calcium and magnesium-free Hanks balanced salt solution supplemented with glucose (4 g/l) (HBSS). The tissues were washed with HBSS and treated with 0.03% trypsin in HBSS at 37° C. for 20 min with gentle shaking, rinsed with cold HBSS and triturated mildly in 3 steps of 8-passage agitation in 1 ml of cold 0.1% soybean trypsin inhibitor (Sigma) in HBSS through a fire-polished siliconized Pasteur pipette. Each supernatant cell suspension was filtered through 50 μm-Nylon mesh, pooled and layered onto 4 ml of cold 6.8% metrizamide (Fluka) in HBSS-25 mM HEPES (pH7.4) in a 12 ml-siliconized conical glass tube. The tube was centrifuged at 400 g for 15 min at 4° C. and the intermediate layer (0.5 ml) was collected into another siliconized tube containing 6.5 ml of cold culture medium (a mixture of glucose (4 g/l)-supplemented Leibovitz's L-15 medium (Gibco), 0.15 M sodium bicarbonate, heat-inactivated and filtered horse serum and penicillin G (10^5 units/ml) at the ratio of 75:15:10:0.1, freshly prepared and buffered with 5% CO2.) After centrifugation at 100×g for 7 min at 4° C., the supernatant was removed and the cells were gently resuspended in culture medium and plated in Greiner 4-well culture dishes (well diameter, 10 mm; C. A. Greiner und Sohne GmbH, Nurtingen, West Germany) at 1000-2000 cells/well. The dishes had been precoated with poly-DL-ornithine (Sigma, 0.5 mg in 0.15 M sodium borate buffer (pH 8.3) overnight at 4° C., rinsed twice with phosphate-buffered saline (PBS) and subsequently coated with laminin (Gibco; 10 μg/ml in the serum-depleted culture medium) and placed in a 5% CO2-incubator until cell plating (5-6 hrs). Cells were incubated at 37° C. in a humidified 5% CO2- and 95% air-incubator. Samples were added one hr after plating and the culture medium changed after 24 hrs and 72 hrs. The initial cell numbers were counted 3 hrs after plating.
In some experiments motor neurons were retrogradely labeled with a fluorescent dye in vivo before cell preparation (U. Dohrman et al., 1986, Dev. Biol. 118:209-221) to identify the motor neuron cell population. A small hole was made in the shell of eggs which had been incubated for 5 days. Small pieces of rhodamine isothiocyanate crystals (Sigma) were inserted at two or three places into each hind limb thigh and the egg hole was sealed with a cellophane tape. The eggs were incubated for another 24 hrs. Some of the operated embryos were then processed for frozen sections after formaldehyde fixation. […] The other embryos were used for cell preparation using the method described above (18.1.1). After 5 hrs in culture cells were rinsed with warm HBSS, fixed with 4% formaldehyde in PBS at room temperature for 20 min, rinsed with PBS and then mounted in glycerol-PBS (1:1) with glass coverslips. Of the total cells approximately 83% were labeled and identified as motorneurons (FIG. 42.) Most of these labeled motorneurons were large cells and the rest were intermediate-size cells. No small cells were labeled. On the other hand, in experiments in which cells were not labeled with a fluorescent dye about 70% of the total cells were large phase-bright cells with round cell somas, about 20% were intermediate-size neurons (most of them may be motorneurons) and about 10% were small immature neurons (they have neuron-like processes with growth cones but have phase-dark semi-flat cell somas). Non-neuronal cells were either not present or accounted for less than 2%. Taken together, one may conclude that at least 83% of the cells are motorneurons while the remainder consists of non-labeled motorneurons, a small number of unidentified intermediate-size neurons and about 10% immature small neurons. […]

The subject of assay [4] is E10 rat ciliary ganglion neurons. As to the kind of experiment: Survival and neurite outgrowth of ciliary ganglion neurons with E. coli protein extract. The class given is cell-based. Here is the method:
(§2) In addition, protein extracts were prepared from the same cells lysed by treatment with lysozyme followed by three cycles of freezing and thawing. […] No such activity could be detected in control extracts from the same host cells carrying the plasmid vector without the rCNTF gene.

Assay [5] relates to E8 dorsal root ganglion neurons. As to the kind of experiment: Survival and neurite outgrowth of dorsal root ganglion neurons / DRG assay with E. coli protein extracts. The note with it: protein extract of E. coli W3110iqF-/rCNTF-C-1; after 24 and 48 hours in vitro. The class given is cell-based. Here is the method: as §2
Human CNTF sequence, engineered to lack intron sequences, has been inserted into the pCP93 vector and used to transform competent E. coli.

The test system of assay [6] is E8 chick ciliary ganglion neurons. As to the kind of experiment: Survival of dissociated E8 chick ciliary ganglion neurons. The class given is cell-based. The note with it: dissociated, neuron-enriched E8 chick ciliary ganglion cultures.
Description: Ciliary neurotrophic factor activity may be evaluated using any CNTF-sensitive in vivo or in vitro system known in the art. For example, and not by way of limitation, in vitro systems have been developed which measure CNTF activity by quantitating 24-hour survival of embryonic (E8) chick ciliary ganglion (CG) neurons in monolayer cultures.
For example, ciliary ganglia may be collected from E8 chick embryos, dissociated (yielding approximately 20,000 cells per ganglion) and then diluted in HEBM medium containing 20 percent horse serum as described in Varon et al. (1979, Brain Res. 173:29-45). About fifty microliters of cell suspension containing neurons (2,000 cells) may then be seeded into microliter dishes and putative CNTF activity may be added. Culture plates may then be maintained at 37° C. in 5% CO2 for 24 hours, after which the cultures may be fixed by the addition of 200 μl 2 per cent glutaraldehyde in HEBM medium, and the number of surviving neurons may be determined visually by direct count under phase contrast microscopy.
Chick embryo ciliary ganglion cultures were created and maintained according to the method set forth in (Hughes et al., 1988, Nature 335 : 70-73).
as §1

B1: pRPN59: hCNTF interrupted after the 185th codon, followed by 10 additional unrelated amino acids (protein, UniProt P26441 1-185, looked up, fragment)
chain: MAFTEHSPLTPHRRDLCSRSIWLARKIRSDLTALTESYVKHQGLNKNINLDSADGMPVASTDQWSELTEAERLQENLQAYRTFHVLLARLLEDQQVHFTPTEGDFHQAIHTLLLQVAAFAYQIEELMILLEYKIPRNEADGMPINVGDGGLFEKKLWGLKVLQELSQWTVRSIHDLRFISSHQTG
modifications: plus 10 unrelated C-terminal residues
In the case of B1, the biological activity entry in assay [1] is “as active as the full length protein”.

B2: BDNF: brain derived neurotrophic factor (porcine in Table VI) (protein, UniProt P14082 134-252, looked up)
Neurotrophic factor BDNF: HSDPARRGELSVCDSISEWVTAADKKTAVDMSGGTVTVLEKVPVSKGQLKQYFYETKCNPMGYTKEGCRGIDKRHWNSQCRTTQSYVRALTMDSKKRIGWRFIRIDTSCVCTLTIKRGR
modifications: Neurotrophic factor BDNF
Take B2: in assay [2], the “effect on / survival of GABAergic neurons” value is listed as “does not seem to promote the survival”. Moreover, in assay [3] (after 3 days in culture, one concentration per molecule, Table VI, CNTF rat, rec.), the Survival entry is “−”. Moreover, the “survival effect on motoneurons” value in assay [3] (supramaximal concentrations, NT-3 produced by transfected Cos-cells) is reported as “no discernable effect”.

B3: pRPN112: hCNTF interrupted after the 145th codon plus one leucine; lacks 55 carboxyl-terminal residues (protein, UniProt P26441 1-145, looked up, fragment)
chain: MAFTEHSPLTPHRRDLCSRSIWLARKIRSDLTALTESYVKHQGLNKNINLDSADGMPVASTDQWSELTEAERLQENLQAYRTFHVLLARLLEDQQVHFTPTEGDFHQAIHTLLLQVAAFAYQIEELMILLEYKIPRNEADGMPIN
modifications: plus one C-terminal leucine
notes: hCNTF interrupted after the 145th codon plus one leucine; lacks 55 carboxyl-terminal residues
Take B3: the biological activity result in assay [1] was “inactive”.

B4: pRPN109: hCNTF with serine in place of cysteine at amino acid 17, encoded in plasmid pRPN109 (protein, UniProt P26441 1-200, looked up, variant C17S)
Ciliary neurotrophic factor: MAFTEHSPLTPHRRDLSSRSIWLARKIRSDLTALTESYVKHQGLNKNINLDSADGMPVASTDQWSELTEAERLQENLQAYRTFHVLLARLLEDQQVHFTPTEGDFHQAIHTLLLQVAAFAYQIEELMILLEYKIPRNEADGMPINVGDGGLFEKKLWGLKVLQELSQWTVRSIHDLRFISSHQTGIPARGSHYIANNKKM
As for B4, the biological activity result in assay [1] is given as “as active as the full length protein”.

B5: recombinant rat CNTF: rat ciliary neurotrophic factor expressed in E. coli (protein, UniProt P20294 1-200, looked up)
Ciliary neurotrophic factor: MAFAEQTPLTLHRRDLCSRSIWLARKIRSDLTALMESYVKHQGLNKNINLDSVDGVPVASTDRWSEMTEAERLQENLQAYRTFQGMLTKLLEDQRVHFTPTEGDFHQAIHTLMLQVSAFAYQLEELMVLLEQKIPENEADGMPATVGDGGLFEKKLWGLKVLQELSQWTVRSIHDLRVISSHQMGISALESHYGAKDKQM
Consider B5, for which the “amount of rCNTF at which maximal activity was seen” value in assay [4] (ciliary and dorsal root ganglion neuron cultures) is listed as “less than 1 nanogram”. In assay [4] (protein extract of E. coli W3110iqF-/rCNTF-C-1, after 24 and 48 hours in vitro), the “survival and neurite outgrowth of E10 rat ciliary ganglion neurons” value is reported as “up to 50%”. In addition, the “survival and neurite outgrowth of E8 dorsal root ganglion neurons” value in assay [5] is listed as “approximately 30%”. In addition, in assay [6], the “lowest concentration at which activity was detectable” value is 2 pg/mL. For the same molecule, in assay [3] (recombinant rat CNTF, 5 ng/ml), the “motorneurons alive after 3 days in culture” value is “about 70%” and the “motorneurons alive after 6 days in culture” value is reported as “about 60%”.

B6: pRPN65: rCNTF terminated immediately after the 165th codon (protein, UniProt P20294 1-165, looked up, fragment)
chain: MAFAEQTPLTLHRRDLCSRSIWLARKIRSDLTALMESYVKHQGLNKNINLDSVDGVPVASTDRWSEMTEAERLQENLQAYRTFQGMLTKLLEDQRVHFTPTEGDFHQAIHTLMLQVSAFAYQLEELMVLLEQKIPENEADGMPATVGDGGLFEKKLWGLKVLQEL
As for B6, the biological activity result in assay [1] is “inactivated”.
